Reference: FireProtDB (doi:10.1016/0022-2836(92)90387-y)

Conditions: Bacillus amyloliquefaciens; pH 6.3; 25 °C; Urea; Fluorescence; MES 50 mM; reversible: yes; whole UniProt chain shown

B1: Ribonuclease wild type, P00648 (protein)
chain: MMKMEGIALKKRLSWISVCLLVLVSAAGMLFSTAAKTETSSHKAHTEAQVINTFDGVADYLQTYHKLPDNYITKSEAQALGWVASKGNLADVAPGKSIGGDIFSNREGKLPGKSGRTWREADINYTSGFRNSDRILYSSDWLIYKTTDHYQTFTKIR
- unfolding free energy: 8.83 kcal/mol
